T1: PUF4 RNA-binding domain (Saccharomyces cerevisiae, UniProt P25339 537-888)
T1 sequence: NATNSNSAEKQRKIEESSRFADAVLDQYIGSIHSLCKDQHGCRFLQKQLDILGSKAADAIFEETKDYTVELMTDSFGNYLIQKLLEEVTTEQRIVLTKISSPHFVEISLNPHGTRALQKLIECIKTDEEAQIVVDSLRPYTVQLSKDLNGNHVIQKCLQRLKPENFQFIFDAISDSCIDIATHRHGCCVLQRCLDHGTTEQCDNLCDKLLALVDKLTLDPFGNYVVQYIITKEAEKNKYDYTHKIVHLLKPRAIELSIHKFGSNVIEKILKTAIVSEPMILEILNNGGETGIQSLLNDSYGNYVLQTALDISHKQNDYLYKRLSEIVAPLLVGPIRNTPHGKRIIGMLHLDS


Target: T1, PUF4 RNA-binding domain
Experiment: Mg; RNA-MaP; 20 mM Na-HEPES pH 7.4, 30 mM KOAc, 0.75 mM MgCl2, 0.1% Tween-20, 5% glycerol, 0.1 mg/mL BSA, 2 mM DTT; 25 C; 0.0125-409.6 nM protein
Conditions: tags: N-His6-TEV cleaved; C-SNAP kept, Cy3B-labelled; label: tethered on chip by stalled RNA polymerase

Binder	Kd [nM]
UCUCUUUAUACUAUUAUCUCUU (ssRNA) [Ib_S1_P5E.1_K5.1_C5.1_H5.1_[G2A]_A5.1_[T5C]_F5.1_T5.1]	330
Id_ii_S4_P3E.4_K3.3_C3.2_[C-2G]_[T-1C]_H3.3_A3.1_F3.1_T3.2_[T9A]_[A10T] (ssRNA) RNA: UUUGACAACUGAUCGUUCUUUCUGCACACUAUAAUUUCUUUCUCGAUCAGUUGUCUUU	60.5
Id_ii_S4_P3E.4_K3.3_C3.2_[T-1C]_H3.3_A3.1_F3.1_T3.2_[T9G]_[A10C] (ssRNA) RNA: UUUGACAACUGAUCGUUCUUUCUCCACACUAUAGCUUCUUUCUCGAUCAGUUGUCUUU	> 2300
Id_ii_S4_P3E.4_K3.3_C3.2_[T-1A]_H3.3_A3.1_F3.1_T3.2_[T9C]_[A10C] (ssRNA) RNA: UUUGACAACUGAUCGUUCUUUCUCAACACUAUACCUUCUUUCUCGAUCAGUUGUCUUU	2160
Id_ii_S4_P3E.4_K3.3_C3.2_[C-2G]_H3.3_A3.1_F3.1_T3.2_[T9C]_[A10C] (ssRNA) RNA: UUUGACAACUGAUCGUUCUUUCUGUACACUAUACCUUCUUUCUCGAUCAGUUGUCUUU	1.46
Id_ii_S4_P3E.4_K3.3_C3.2_H3.3_A3.1_F3.1_T3.2_[A10C] (ssRNA) RNA: UUUGACAACUGAUCGUUCUUUCUCUACACUAUAUCUUCUUUCUCGAUCAGUUGUCUUU	926
Id_ii_S4_P3E.4_K3.3_C3.2_[C-2T]_H3.3_A3.1_F3.1_T3.2_[T9G]_[A10C] (ssRNA) RNA: UUUGACAACUGAUCGUUCUUUCUUUACACUAUAGCUUCUUUCUCGAUCAGUUGUCUUU	1230
Id_ii_S4_P3E.4_K3.3_C3.2_[T-1G]_H3.3_A3.1_F3.1_T3.2_[T9C]_[A10T] (ssRNA) RNA: UUUGACAACUGAUCGUUCUUUCUCGACACUAUACUUUCUUUCUCGAUCAGUUGUCUUU	> 2300
Id_ii_S4_P3E.4_K3.3_C3.2_[C-2G]_H3.3_A3.1_F3.1_T3.2_[A10T] (ssRNA) RNA: UUUGACAACUGAUCGUUCUUUCUGUACACUAUAUUUUCUUUCUCGAUCAGUUGUCUUU	0.57
Id_ii_S4_P3E.4_K3.3_C3.2_[C-2A]_[T-1C]_H3.3_A3.1_F3.1_T3.2_[T9G]_[A10C] (ssRNA) RNA: UUUGACAACUGAUCGUUCUUUCUACACACUAUAGCUUCUUUCUCGAUCAGUUGUCUUU	> 2300
Id_ii_S4_P3E.4_K3.3_C3.2_[C-2T]_H3.3_A3.1_F3.1_T3.2_[A10T] (ssRNA) RNA: UUUGACAACUGAUCGUUCUUUCUUUACACUAUAUUUUCUUUCUCGAUCAGUUGUCUUU	946
Id_ii_S4_P3E.4_K3.3_C3.2_[C-2T]_[T-1A]_H3.3_A3.1_F3.1_T3.2_[T9A]_[A10T] (ssRNA) RNA: UUUGACAACUGAUCGUUCUUUCUUAACACUAUAAUUUCUUUCUCGAUCAGUUGUCUUU	> 2300
Id_ii_S4_P3E.4_K3.3_C3.2_[T-1G]_H3.3_A3.1_F3.1_T3.2_[T9C] (ssRNA) RNA: UUUGACAACUGAUCGUUCUUUCUCGACACUAUACAUUCUUUCUCGAUCAGUUGUCUUU	637
Id_ii_S4_P3E.4_K3.3_C3.2_[C-2A]_H3.3_A3.1_F3.1_T3.2_[A10C] (ssRNA) RNA: UUUGACAACUGAUCGUUCUUUCUAUACACUAUAUCUUCUUUCUCGAUCAGUUGUCUUU	41.8
Id_ii_S4_P3E.4_K3.3_C3.2_[C-2T]_H3.3_A3.1_F3.1_T3.2_[T9A] (ssRNA) RNA: UUUGACAACUGAUCGUUCUUUCUUUACACUAUAAAUUCUUUCUCGAUCAGUUGUCUUU	2300
Id_ii_S4_P3E.4_K3.3_C3.2_[C-2T]_[T-1A]_H3.3_A3.1_F3.1_T3.2_[A10C] (ssRNA) RNA: UUUGACAACUGAUCGUUCUUUCUUAACACUAUAUCUUCUUUCUCGAUCAGUUGUCUUU	1540
Id_ii_S4_P3E.4_K3.3_C3.2_[C-2A]_[T-1C]_H3.3_A3.1_F3.1_T3.2_[T9A]_[A10C] (ssRNA) RNA: UUUGACAACUGAUCGUUCUUUCUACACACUAUAACUUCUUUCUCGAUCAGUUGUCUUU	1370
Id_ii_S4_P3E.4_K3.3_C3.2_[C-2T]_[T-1C]_H3.3_A3.1_F3.1_T3.2_[T9C]_[A10G] (ssRNA) RNA: UUUGACAACUGAUCGUUCUUUCUUCACACUAUACGUUCUUUCUCGAUCAGUUGUCUUU	> 2300
Id_ii_S4_P3E.4_K3.3_C3.2_[C-2T]_[T-1C]_H3.3_A3.1_F3.1_T3.2_[A10T] (ssRNA) RNA: UUUGACAACUGAUCGUUCUUUCUUCACACUAUAUUUUCUUUCUCGAUCAGUUGUCUUU	1430
Id_ii_S4_P3E.4_K3.3_C3.2_[C-2T]_[T-1C]_H3.3_A3.1_F3.1_T3.2_[A10C] (ssRNA) RNA: UUUGACAACUGAUCGUUCUUUCUUCACACUAUAUCUUCUUUCUCGAUCAGUUGUCUUU	> 2300
Id_ii_S4_P3E.4_K3.3_C3.2_H3.3_A3.1_F3.1_T3.2_[T9C]_[A10T] (ssRNA) RNA: UUUGACAACUGAUCGUUCUUUCUCUACACUAUACUUUCUUUCUCGAUCAGUUGUCUUU	1380
Id_ii_S4_P3E.4_K3.3_C3.2_[T-1A]_H3.3_A3.1_F3.1_T3.2 (ssRNA) RNA: UUUGACAACUGAUCGUUCUUUCUCAACACUAUAUAUUCUUUCUCGAUCAGUUGUCUUU	291
Id_ii_S4_P3E.4_K3.3_C3.2_[C-2T]_[T-1A]_H3.3_A3.1_F3.1_T3.2_[A10T] (ssRNA) RNA: UUUGACAACUGAUCGUUCUUUCUUAACACUAUAUUUUCUUUCUCGAUCAGUUGUCUUU	1310

Binder	Kd [nM]
Id_ii_S4_P3E.4_K3.3_C3.2_[C-2T]_[T-1A]_H3.3_A3.1_F3.1_T3.2 (ssRNA) RNA: UUUGACAACUGAUCGUUCUUUCUUAACACUAUAUAUUCUUUCUCGAUCAGUUGUCUUU	264
Id_ii_S4_P3E.4_K3.3_C3.2_[C-2A]_[T-1A]_H3.3_A3.1_F3.1_T3.2_[T9C] (ssRNA) RNA: UUUGACAACUGAUCGUUCUUUCUAAACACUAUACAUUCUUUCUCGAUCAGUUGUCUUU	496
Id_ii_S4_P3E.4_K3.3_C3.2_[T-1G]_H3.3_A3.1_F3.1_T3.2_[T9A] (ssRNA) RNA: UUUGACAACUGAUCGUUCUUUCUCGACACUAUAAAUUCUUUCUCGAUCAGUUGUCUUU	> 2300
Id_ii_S4_P3E.4_K3.3_C3.2_[C-2A]_[T-1C]_H3.3_A3.1_F3.1_T3.2_[A10T] (ssRNA) RNA: UUUGACAACUGAUCGUUCUUUCUACACACUAUAUUUUCUUUCUCGAUCAGUUGUCUUU	1140
Id_ii_S4_P3E.4_K3.3_C3.2_H3.3_A3.1_F3.1_T3.2_[T9C] (ssRNA) RNA: UUUGACAACUGAUCGUUCUUUCUCUACACUAUACAUUCUUUCUCGAUCAGUUGUCUUU	597
Id_ii_S4_P3E.4_K3.3_C3.2_[C-2A]_[T-1A]_H3.3_A3.1_F3.1_T3.2_[A10C] (ssRNA) RNA: UUUGACAACUGAUCGUUCUUUCUAAACACUAUAUCUUCUUUCUCGAUCAGUUGUCUUU	1020
Id_ii_S4_P3E.4_K3.3_C3.2_[T-1C]_H3.3_A3.1_F3.1_T3.2_[A10T] (ssRNA) RNA: UUUGACAACUGAUCGUUCUUUCUCCACACUAUAUUUUCUUUCUCGAUCAGUUGUCUUU	1050
Id_ii_S4_P3E.4_K3.3_C3.2_[C-2T]_H3.3_A3.1_F3.1_T3.2 (ssRNA) RNA: UUUGACAACUGAUCGUUCUUUCUUUACACUAUAUAUUCUUUCUCGAUCAGUUGUCUUU	345
Id_ii_S4_P3E.4_K3.3_C3.2_[C-2G]_H3.3_A3.1_F3.1_T3.2_[T9A]_[A10T] (ssRNA) RNA: UUUGACAACUGAUCGUUCUUUCUGUACACUAUAAUUUCUUUCUCGAUCAGUUGUCUUU	0.68
Id_ii_S4_P3E.4_K3.3_C3.2_[C-2A]_H3.3_A3.1_F3.1_T3.2_[A10T] (ssRNA) RNA: UUUGACAACUGAUCGUUCUUUCUAUACACUAUAUUUUCUUUCUCGAUCAGUUGUCUUU	49.3
Id_ii_S4_P3E.4_K3.3_C3.2_[C-2A]_H3.3_A3.1_F3.1_T3.2_[T9A]_[A10C] (ssRNA) RNA: UUUGACAACUGAUCGUUCUUUCUAUACACUAUAACUUCUUUCUCGAUCAGUUGUCUUU	26.4
Id_ii_S4_P3E.4_K3.3_C3.2_[C-2T]_H3.3_A3.1_F3.1_T3.2_[T9A]_[A10C] (ssRNA) RNA: UUUGACAACUGAUCGUUCUUUCUUUACACUAUAACUUCUUUCUCGAUCAGUUGUCUUU	935
Id_ii_S4_P4E.2_K4.1_C4.2_[C-2G]_[T-1C]_H4.1_A4.1_F4.1_T4.2_[G10C]_[T11C] (ssRNA) RNA: UUUGACAACUGAUCGUUCUUUCUGCUGUAUAUUACCUUCUUUCUCGAUCAGUUGUCUUU	1.35
Id_ii_S4_P4E.2_K4.1_C4.2_[C-2T]_[T-1A]_H4.1_A4.1_F4.1_T4.2_[G10A]_[T11C] (ssRNA) RNA: UUUGACAACUGAUCGUUCUUUCUUAUGUAUAUUAACUUCUUUCUCGAUCAGUUGUCUUU	1.15
Id_ii_S4_P4E.2_K4.1_C4.2_[C-2G]_H4.1_A4.1_F4.1_T4.2_[G10T]_[T11A] (ssRNA) RNA: UUUGACAACUGAUCGUUCUUUCUGUUGUAUAUUAUAUUCUUUCUCGAUCAGUUGUCUUU	0.515
Id_ii_S4_P4E.2_K4.1_C4.2_[C-2G]_H4.1_A4.1_F4.1_T4.2_[G10C]_[T11C] (ssRNA) RNA: UUUGACAACUGAUCGUUCUUUCUGUUGUAUAUUACCUUCUUUCUCGAUCAGUUGUCUUU	1.76
Id_ii_S4_P4E.2_K4.1_C4.2_[C-2G]_[T-1C]_H4.1_A4.1_F4.1_T4.2_[G10T] (ssRNA) RNA: UUUGACAACUGAUCGUUCUUUCUGCUGUAUAUUAUUUUCUUUCUCGAUCAGUUGUCUUU	0.295
Id_ii_S4_P4E.2_K4.1_C4.2_[C-2T]_[T-1C]_H4.1_A4.1_F4.1_T4.2_[G10T]_[T11C] (ssRNA) RNA: UUUGACAACUGAUCGUUCUUUCUUCUGUAUAUUAUCUUCUUUCUCGAUCAGUUGUCUUU	0.319
Id_ii_S4_P4E.2_K4.1_C4.2_[C-2T]_[T-1A]_H4.1_A4.1_F4.1_T4.2_[G10T]_[T11C] (ssRNA) RNA: UUUGACAACUGAUCGUUCUUUCUUAUGUAUAUUAUCUUCUUUCUCGAUCAGUUGUCUUU	0.343
UCUCUUUAUAGUAUUAUCUCUU (ssRNA) [Ib_S1_P5E.1_K5.1_C5.1_H5.1_[G2A]_A5.1_[T5G]_F5.1_T5.1]	1360
UCUCUUUCUAUCAUUAUCUCUU (ssRNA) [Ib_S1_P5E.1_K5.1_C5.1_H5.1_[G2C]_A5.1_[T6C]_F5.1_T5.1]	> 2300
UCUCUUUUUAGUAUUAUCUCUU (ssRNA) [Ib_S1_P5E.1_K5.1_C5.1_H5.1_[G2T]_A5.1_[T5G]_F5.1_T5.1]	> 2300

Source: PMC9352680, “A comprehensive thermodynamic model for RNA binding by the Saccharomyces cerevisiae Pumilio protein PUF4”
